The star is where a group is joined. CSCF3 = thiotrifluoroacetyl on lysine, FC(F)(F)C(=S)*; fluorescein = fluorescein label at the N-terminus
B1: Fluorescein-labeled thiotrifluoroacetyl-lysine peptide based on acetyl-CoA synthetase 2 (Fluorescein-LPKTRSGK(CSCF3)VMRR-OH) (peptide)
peptide: fluorescein-LPKTRSGK(CSCF3)VMRR-OH

What was measured:
Hst2 (yeast) = Hst2 (yeast) (UniProt P53686); assay: ITC
SIRT3 (human) [1] = assay: fluorescence polarisation
SIRT3 (human) [2] = assay: ITC

Sequence of UniProt P53686 (P53686 whole entry): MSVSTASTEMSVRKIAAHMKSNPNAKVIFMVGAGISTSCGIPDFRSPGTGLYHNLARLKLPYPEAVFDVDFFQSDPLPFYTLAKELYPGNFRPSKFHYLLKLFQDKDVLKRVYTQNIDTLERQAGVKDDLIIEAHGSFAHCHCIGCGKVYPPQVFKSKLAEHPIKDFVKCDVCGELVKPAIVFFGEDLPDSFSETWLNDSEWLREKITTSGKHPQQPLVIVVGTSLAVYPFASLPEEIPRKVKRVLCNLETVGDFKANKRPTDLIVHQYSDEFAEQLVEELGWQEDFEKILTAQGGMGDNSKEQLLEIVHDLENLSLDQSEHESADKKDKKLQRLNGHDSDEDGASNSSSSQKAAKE

Molecule | Kd (Hst2 (yeast)) [nM] | Kd (SIRT3 (human) [1]) [nM] | Kd (SIRT3 (human) [2]) [nM]
Histone H3 peptide with pentafluoropropionyl-lysine at Lys-14 | 950 |  | 
B1 |  | 1700 | 900

From paper PMC3042044
